Key:
Assay in all cases: cell_activity
[1] = test system: MamB K1033T K1033T (Mycobacterium tuberculosis); conditions: SMRT sequencing kinetics; single isolate
[2] = test system: MamA E270A E270A (Mycobacterium tuberculosis); conditions: SMRT sequencing kinetics; partial stochastic methylation
[3] = test system: MamA G152S G152S (Mycobacterium tuberculosis); conditions: SMRT sequencing kinetics; partial stochastic methylation
[4] = test system: MamA W136R W136R (Mycobacterium tuberculosis); conditions: SMRT sequencing kinetics; methylation knockout, binding itself not measured

Substance | activity (mean SMALR native score) [1] | activity (mean SMALR native score) [2] | activity (mean SMALR native score) [3] | activity (mean SMALR native score) [4]
MamB target motif sites | 0.299 |  |  | 
CTGGAG (double strand) [MamA target motif sites] |  | 0.0558 | 0.766 | -0.107

From US20230076063
